Results from US20170355992, “FACTOR V/Va-TARGETING APTAMER COMPOSITONS AND METHODS OF USING THE SAME” (Duke University, published 2017).

Tests used:
[1] = target: T1, Coagulation Factor V (FV), modified (Homo sapiens, UniProt P12259 P12259:29-2224); assay: filter; lead clone chosen by aPTT activity and binding to FV and FVa; no value given; settings: tags: modified FV, protease-stabilised form described previously; label: 5'-32P
[2] = target: T2, Coagulation Factor Va (FVa), modified (Homo sapiens, UniProt P12259;P12259 P12259:29-737,P12259:1574-2224); assay: as above; settings: tags: modified FVa, protease-stabilised form described previously; label: 5'-32P
T2 chain 1: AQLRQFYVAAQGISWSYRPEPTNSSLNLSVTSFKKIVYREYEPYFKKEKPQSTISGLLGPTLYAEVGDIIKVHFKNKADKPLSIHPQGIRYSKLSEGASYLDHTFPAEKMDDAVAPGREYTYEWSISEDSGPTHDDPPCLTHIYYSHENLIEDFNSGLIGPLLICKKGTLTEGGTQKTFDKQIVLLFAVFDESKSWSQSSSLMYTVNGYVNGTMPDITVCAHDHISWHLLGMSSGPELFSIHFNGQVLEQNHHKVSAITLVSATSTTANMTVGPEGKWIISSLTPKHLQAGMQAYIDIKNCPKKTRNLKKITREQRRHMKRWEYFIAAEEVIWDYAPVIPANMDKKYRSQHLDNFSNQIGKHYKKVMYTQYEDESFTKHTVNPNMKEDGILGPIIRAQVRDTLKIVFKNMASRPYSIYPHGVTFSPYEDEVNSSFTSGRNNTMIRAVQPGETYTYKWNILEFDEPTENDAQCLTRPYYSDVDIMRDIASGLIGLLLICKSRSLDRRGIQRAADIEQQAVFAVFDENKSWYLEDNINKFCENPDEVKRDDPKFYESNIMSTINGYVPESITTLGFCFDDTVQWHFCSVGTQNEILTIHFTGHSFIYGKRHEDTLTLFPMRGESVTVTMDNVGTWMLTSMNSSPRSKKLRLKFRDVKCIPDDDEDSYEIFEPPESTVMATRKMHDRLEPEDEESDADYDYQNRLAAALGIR
T2 chain 2: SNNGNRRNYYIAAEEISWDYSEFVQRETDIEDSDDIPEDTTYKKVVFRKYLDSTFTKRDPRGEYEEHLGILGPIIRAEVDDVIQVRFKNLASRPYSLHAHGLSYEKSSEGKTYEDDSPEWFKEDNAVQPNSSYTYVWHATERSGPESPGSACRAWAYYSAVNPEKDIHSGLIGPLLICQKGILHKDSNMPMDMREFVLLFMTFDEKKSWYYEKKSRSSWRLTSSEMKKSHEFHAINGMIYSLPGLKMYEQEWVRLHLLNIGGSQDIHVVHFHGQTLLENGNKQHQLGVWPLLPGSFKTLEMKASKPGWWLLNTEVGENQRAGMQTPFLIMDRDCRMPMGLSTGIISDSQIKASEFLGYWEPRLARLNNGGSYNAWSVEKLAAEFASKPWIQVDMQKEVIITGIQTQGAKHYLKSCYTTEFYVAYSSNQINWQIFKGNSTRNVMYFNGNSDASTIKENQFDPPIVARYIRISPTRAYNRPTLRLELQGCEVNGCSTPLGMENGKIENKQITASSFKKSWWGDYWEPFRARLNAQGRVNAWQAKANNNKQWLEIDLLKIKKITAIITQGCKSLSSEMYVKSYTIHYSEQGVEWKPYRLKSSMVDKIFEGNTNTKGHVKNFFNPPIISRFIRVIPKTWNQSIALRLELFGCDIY

[3] = target: T2, Coagulation Factor Va (FVa), modified; assay: filter; lead clone; also at 2.0 uM inhibits FVa-phospholipid docking by light scattering (p125); settings: tags: modified FVa, protease-stabilised form described previously; label: 5'-32P
Factor V light chain = Factor V light chain (UniProt P12259 P12259:1574-2224); assay: SPR; three runs: 1.926, 1.504, 7.997; text ~5 nM; HBS 2 mM CaCl2, 25 C; settings: label: 5'-biotin
Protocol: (§1) The T18.3 binding constants were determined using surface plasmon resonance (SPR) with a BiaCore3000 (GE Healthcare). This method was used to determine apparent KDs for T18.3 to modified FV, modified FVa, the FV heavy chain, and the FV light chain. The T18.3 aptamer was synthesized (Biosynthesis, Lewisville, Tex.) and included a biotin and PEG 11 spacer on the 5′ end to allow for immobilization of the aptamer on a biotin CAPture chip kit (GE Healthcare). Prior to chip coating, the biotinylated T18.3 was refolded using the same protocol as the in vitro transcribed T18.3 by heating to 95° C. for 3 minutes followed by 3 minutes at room temperature. Aptamer conjugation onto the chip was achieved by flowing aptamer solution over the chip at a rate of 2 μL/min for 5 minutes. For binding to the modified FV, FVa, and purified FV heavy chain, 5.0 ng of aptamer was coated onto the chip. For the purified FV light chain experiments 15.3 ng of aptamer was coated onto the chip. Binding experiments using SPR was performed at 25° C. in HBS with CaCl2, without the addition of BSA or PEG 8000. […] Increasing concentrations of protein were flowed over the T18.3-coated chip and apparent KD was determined by calculating the differences in response units (RU) from buffer for each protein concentration immediately before the end of each protein injection and plotted as ΔRU versus protein concentration. […]

[4] = target: T1, Coagulation Factor V (FV), modified; assay: SPR; three runs: 16.55, 10.00, 8.213; text ~10 nM; HBS 2 mM CaCl2, 25 C; settings: tags: modified FV, protease-stabilised form described previously; label: 5'-biotin
Protocol: as §1

[5] = target: T2, Coagulation Factor Va (FVa), modified; assay: SPR; three runs: 6.222, 5.408, 5.115; text ~6 nM; HBS 2 mM CaCl2, 25 C; settings: tags: modified FVa, protease-stabilised form described previously; label: 5'-biotin
Protocol: as §1

Factor Xa = Factor Xa (Homo sapiens, UniProt P00742;P00742 P00742:41-179,P00742:235-488); assay: filter; no binding up to 1000 nM FXa; settings: label: 5'-32P
[6] = target: T1, Coagulation Factor V (FV), modified; assay: filter; no binding above starting library; settings: tags: modified FV, protease-stabilised form described previously; label: 5'-32P
[7] = target: T2, Coagulation Factor Va (FVa), modified; assay: filter; HBS 2 mM CaCl2, 0.01% BSA, 0.1% PEG 8000, 37 C; low Bmax; settings: tags: modified FVa, protease-stabilised form described previously; label: 5'-32P
Protocol: (§2) Apparent binding affinity of the aptamers to a purified protein was determined using double filter nitrocellulose binding assays. Binding of the radiolabeled pooled RNA, 11HMT, and 11Mut2 to modified FV and FVa was assessed by incubating trace amounts of radiolabeled RNA with serial dilutions of the purified target protein. For SELEX round binding, pooled RNAs were incubated with modified FV or FVa diluted two fold from 0 nM to 750-800 nM for both proteins. For 11HMT, the radiolabeled RNAs were incubated with both proteins from 0 nM to 500 nM. The radiolabeled RNAs were denatured and re-folded in Hepes-buffered saline (HBS) with CaCl2 (20 mM Hepes pH 7.4, 150 mM NaCl, 2 mM CaCl2), 0.01% bovine serum albumin (BSA), and 0.1% w/v polyethylene glycol 8000 (PEG 8000) by incubating at 95° C. for 3 minutes followed by cooling to room temperature for 3 minutes. The radiolabeled RNA alone was incubated at 37° C. for 5 minutes, followed by incubation with the protein in HBS with CaCl2, 0.01% BSA, and 0.1% w/v PEG 8000 at 37° C. for 5 minutes. […] Bound and unbound RNA was quantitated using a Storm 825 phosphoimager (GE Healthcare, Little Chalfont, Buckinghamshire, UK) and quantified via densitometry.

[8] = target: T1, Coagulation Factor V (FV), modified; assay: FP_none filter; settings: tags: modified FV, protease-stabilised form described previously; label: 5'-32P
Protocol: as §2
Target sequence in this assay (P12259 29-2224, one chain of several): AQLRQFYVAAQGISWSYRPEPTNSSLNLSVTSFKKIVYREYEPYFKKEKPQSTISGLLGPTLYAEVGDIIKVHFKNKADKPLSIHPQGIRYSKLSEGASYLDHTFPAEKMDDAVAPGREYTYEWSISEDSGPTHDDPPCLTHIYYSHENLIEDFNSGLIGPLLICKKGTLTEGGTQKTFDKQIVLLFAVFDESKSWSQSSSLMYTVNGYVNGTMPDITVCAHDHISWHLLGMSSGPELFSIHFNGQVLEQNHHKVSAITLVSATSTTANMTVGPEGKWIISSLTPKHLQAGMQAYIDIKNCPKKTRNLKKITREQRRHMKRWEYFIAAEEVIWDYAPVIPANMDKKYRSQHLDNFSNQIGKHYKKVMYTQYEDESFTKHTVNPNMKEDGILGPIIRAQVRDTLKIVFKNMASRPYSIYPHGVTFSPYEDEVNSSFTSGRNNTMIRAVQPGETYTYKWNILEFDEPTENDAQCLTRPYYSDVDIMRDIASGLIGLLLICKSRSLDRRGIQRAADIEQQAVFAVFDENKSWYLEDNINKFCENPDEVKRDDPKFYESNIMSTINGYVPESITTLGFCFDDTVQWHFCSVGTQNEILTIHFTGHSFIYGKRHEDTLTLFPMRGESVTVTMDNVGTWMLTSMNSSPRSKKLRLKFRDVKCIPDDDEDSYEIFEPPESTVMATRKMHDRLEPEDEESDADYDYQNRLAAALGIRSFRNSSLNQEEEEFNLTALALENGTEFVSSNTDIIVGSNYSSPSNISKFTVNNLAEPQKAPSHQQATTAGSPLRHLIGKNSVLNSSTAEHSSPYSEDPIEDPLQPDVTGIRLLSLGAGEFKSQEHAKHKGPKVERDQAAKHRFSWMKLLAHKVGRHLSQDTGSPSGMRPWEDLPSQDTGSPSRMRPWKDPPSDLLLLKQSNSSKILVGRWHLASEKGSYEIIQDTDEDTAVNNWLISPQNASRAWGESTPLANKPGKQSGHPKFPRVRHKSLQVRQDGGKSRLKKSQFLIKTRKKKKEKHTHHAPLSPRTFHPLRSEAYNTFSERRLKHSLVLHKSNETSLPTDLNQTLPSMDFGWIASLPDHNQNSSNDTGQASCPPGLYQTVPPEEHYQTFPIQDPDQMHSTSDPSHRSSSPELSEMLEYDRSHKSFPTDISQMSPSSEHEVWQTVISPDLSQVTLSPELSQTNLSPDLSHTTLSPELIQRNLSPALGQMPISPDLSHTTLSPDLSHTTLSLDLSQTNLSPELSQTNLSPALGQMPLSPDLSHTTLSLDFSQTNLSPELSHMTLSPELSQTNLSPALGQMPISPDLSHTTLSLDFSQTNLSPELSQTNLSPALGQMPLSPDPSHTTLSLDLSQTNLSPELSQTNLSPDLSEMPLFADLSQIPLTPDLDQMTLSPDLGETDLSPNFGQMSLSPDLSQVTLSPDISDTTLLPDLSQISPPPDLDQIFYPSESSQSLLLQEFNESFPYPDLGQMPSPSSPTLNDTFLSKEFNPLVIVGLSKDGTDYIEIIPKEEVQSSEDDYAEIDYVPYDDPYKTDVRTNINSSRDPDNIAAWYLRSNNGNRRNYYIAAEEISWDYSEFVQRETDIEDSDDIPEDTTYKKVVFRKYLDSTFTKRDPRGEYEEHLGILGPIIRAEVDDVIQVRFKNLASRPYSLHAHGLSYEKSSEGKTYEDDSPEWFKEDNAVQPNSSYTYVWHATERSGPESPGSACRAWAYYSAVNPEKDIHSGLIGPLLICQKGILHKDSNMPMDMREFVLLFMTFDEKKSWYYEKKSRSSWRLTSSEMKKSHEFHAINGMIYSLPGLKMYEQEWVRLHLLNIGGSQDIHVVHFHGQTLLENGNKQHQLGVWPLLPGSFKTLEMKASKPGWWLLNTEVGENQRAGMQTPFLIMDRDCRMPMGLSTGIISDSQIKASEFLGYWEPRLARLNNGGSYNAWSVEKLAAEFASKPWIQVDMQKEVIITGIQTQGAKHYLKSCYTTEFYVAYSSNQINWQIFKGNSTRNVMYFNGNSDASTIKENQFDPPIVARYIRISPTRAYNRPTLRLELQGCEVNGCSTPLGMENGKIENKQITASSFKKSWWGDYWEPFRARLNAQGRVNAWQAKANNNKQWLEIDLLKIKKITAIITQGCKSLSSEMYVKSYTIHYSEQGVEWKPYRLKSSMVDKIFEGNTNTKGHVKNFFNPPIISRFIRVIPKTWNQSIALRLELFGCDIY

[9] = target: T1, Coagulation Factor V (FV), modified; assay: filter; no binding above starting library; settings: tags: modified FV, protease-stabilised form described previously; label: 5'-32P; remark: listed apart in the source
Protocol: as §2

[10] = target: T2, Coagulation Factor Va (FVa), modified; assay: filter; no binding above starting library; settings: tags: modified FVa, protease-stabilised form described previously; label: 5'-32P
Protocol: as §2

Chain of Factor Xa (P00742 41-179, chain 1 of 2): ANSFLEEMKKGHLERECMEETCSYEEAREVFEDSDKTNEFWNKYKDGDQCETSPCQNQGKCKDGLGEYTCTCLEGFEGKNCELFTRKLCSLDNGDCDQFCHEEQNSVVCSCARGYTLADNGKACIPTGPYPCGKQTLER
Chain of Factor Xa (P00742 235-488, chain 2 of 2): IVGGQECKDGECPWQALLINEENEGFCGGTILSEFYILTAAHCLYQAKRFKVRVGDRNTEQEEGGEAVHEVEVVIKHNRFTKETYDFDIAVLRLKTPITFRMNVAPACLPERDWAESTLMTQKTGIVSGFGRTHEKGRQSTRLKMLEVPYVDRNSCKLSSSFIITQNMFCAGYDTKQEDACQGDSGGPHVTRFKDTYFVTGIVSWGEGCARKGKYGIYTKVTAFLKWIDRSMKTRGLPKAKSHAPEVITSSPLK

B1: FVa R9c11 (ssRNA)
RNA: GGGAGGACGAUGCGGUCACGCCCCUCAGGAUCCAACGCACAAUUACGUGCCUUGUCAGACGACUCGCUGAGGAUCCGAGA
modifications: 2'-F C and U
- binding result [1]: binds
- binding result [2]: binds

B2: FV R8c7 (ssRNA)
RNA: GGGAGGACGAUGCGGUCGCCCAAACUUGGAUAACCUCACCGCAAUGGCGGCUUGUCAGACGACUCGCUGAGGAUCCGAGA
modifications: 2'-F C and U
- binding result [3]: binds
- binding result [1]: binds

B3: T18.3 biotinylated (ssRNA)
RNA: GGACUUGGAUAACCUCACCGCAAUGGCGGCUUGUCAGACGACUCGCUGAGGAUCCGAG
modifications: 2'-F C and U; 5' biotin and PEG11 spacer
- Kd (Factor V light chain): 3.47 nM
- Kd [4]: 11.7 nM
- Kd [5]: 5.64 nM

B4: 18.3Mut1 (ssRNA)
RNA: GGACUUGGAUAACCUCACCGCAAUGGCGGAGGGUCAGACGACUCGCUGAGGAUCCGAG
modifications: 2'-F C and U
- binding result (Factor Xa): no binding
- binding result [6]: no binding

B5: T18.3 (ssRNA)
RNA: GGACUUGGAUAACCUCACCGCAAUGGCGGCUUGUCAGACGACUCGCUGAGGAUCCGAG
modifications: 2'-F C and U
- binding result (Factor Xa): no binding

B6: 11HMT (ssRNA)
RNA: GGAUCCAACGCACAAUUACGUGCCUUGUCAGACGACUCGCUGAGGAUCC
modifications: 2'-F C and U
- Kd [7]: 0.822 nM
- Kd [8]: 23.2 nM

B7: 11Mut2 (ssRNA)
RNA: GGAUCCAACGCACAAUUACGUGCCGGUUCAGACGACUCGCUGAGGAUCC
modifications: 2'-F C and U
- binding result [9]: no binding
- binding result [10]: no binding
